Reference: patent publication US8993714B2, “Streptavidin macromolecular adaptor and complexes thereof” (Imiplex LLC, priority 2007, dated 2015)

How the values were obtained:
[1] = Zarembinski et al. 1998; cited from earlier work
[2] = Binding of purified MJ0577 to nucleotide mimicking resin Cibacron Blue; settings: 25 mM sodium phosphate buffer pH 7.6
Protocol: (§1) The structure of MJ0577 was determined in the context of a structural genomics project aimed at elucidating protein function through 3D structural studies. […] Because the nucleotide was not added to buffers used during purification and crystallization, the authors concluded that ATP was scavenged from the growth media. […] Because the purification protocol developed here includes heating and dialysis at pH 5.2 steps, we believed that it was possible that the protein would be isolated as the ATP-free form. To test this hypothesis, the affinity of purified MJ0577 for the nucleotide mimicking resin, Cibacron Blue, was tested following the procedure successfully applied in the purification of an MJ0577 structural relative, E. coli YnaF (Saveanu et al. 2002). […] MJ0577 was dialyzed overnight against 8 M guanidinium HCl (GuHCl) 0.2 M TRIS pH 8.2, 5 mM DTT, then dialyzed overnight against 8 M urea, and finally equilibrated to non-denaturing conditions by dialysis against 25 mM sodium phosphate buffer pH 7.6. In a separate experiment, MJ0577 was dialyzed overnight against 2 M GuHCl in 25 mM L-histidine pH 5.6, 2 M GuHCl in 25 mM CHES pH 9.8, and 2 M GuHCl in 25 mM sodium phosphate buffer pH 7.8, 20% DMSO. Half of each sample was then heated at 40° C. for one hour. […] Such results can enable the ready establishment of proper conditions for a biotin-ATP substituted SAMA.

[3] = Binding of MJ0577 to ATP immobilized on a resin via the g-phosphate, analysis by PAGE; settings: after dialysis against GuHCl/urea
Protocol: as §1

binding to Cibacron Blue resin [2]: No binding was observed
interaction with ATP resin [3]: essentially no interaction
B1: MJ0577: protein dimer isolated from the thermostable bacterium Methanococcus jannaschii, 162 residues, SEQ ID NO: 11; SAMA template (protein, listed as Methanococcus jannaschii)
chain: MSVMYKKILYPTDFSETAEIALKHVKAFKTLKAEEVILLHVIDEREIKKRDIFSLLLGVAGLNKSVEEFENELKNKLTEEAKNKMENIKKELEDVGFKVKDIIVVGIPHEEIVKIAEDEGVDIIIMGSHGKTNLKEILLGSVTENVIKKSNKPVLVVKRKNS
modifications: dimer
notes: SAMA template
thermostable to [1]: at least 80 °C
